Laboratory results taken from the DeepSol protein solubility set.

Assay: soluble on expression in E. coli; label from the status in PepcDB or PDB records
In the case of “MSLTDPAPEPEPPVEGQWTALTASPDTWDETKRADISYQLLLYSFADSDGDGYGDLNGVTQKLDYLNQLGVKALWLSPIHPCMSYHGYDVTDYTKVNPQLGTESDFDRLVTEAHNRGIKIYLDYVMNHTGTAHPWFTEASSSSESPYRNYYSFSEDPKTDIAAGKIAMITQEGAAGYNAAEWFQVSDETAAVKGLLKFTLDWSNAPSPILVVSTGTKADEDNPDTGTDNAKYLYYGEDICKKFYDKGNNIYELTVDFESTWGLLIRTSNASFWPSGTKYGASSSSEKLALNKDFKLTNAGNPANIMFDSQQITYFHSHFCTDWFADLNYGPVDQAGESPAYQAIADAAKGWIARGVDGLRLDAVKHIYHSETSEENPRFLKMFYEDMNAYYKQKGHTDDFYMIGEVLSEYDKVAPYYKGLPALFEFSFWYRLEWGINNSTGCYFAKDILSYQQKYANYRSDYIEATKLSNHDEDRTSSKLGKSADKCKLAAAVLLTSAGHPYIYYGEELGLYGTKDNGDEYVRSPMLWGDSYTTNYTDKTDATVSKNVKTVADQQADTHSLLNIYFSLTRLRNTYPALAEGNMTKHSVYNESQEKDYKPIAAWYMTKDNEKLLVIHNFGGTAMQLPLTDKIEKVLFVNGETQQNTDSDSYTLKLGGYASVVFKLGNEGHHHHHH”, the “soluble on expression in E. coli” value is reported as “soluble”.
For “MSLTEKTKEVRLDFFEALGMVTALMMDCDYKHWFVADISRNIIPALQAGQCKVYFDEEGRPNAFVTWALVDNDDHEALLREGCNPPPGKWASGNHLWFIDIVAPVGNILPRIKRDLHQNYFADHNKAYAIRSKADGAIRRVQVWKNPLVTRPTRSFRIGADIETHDDEGHHHHHH”, the “soluble on expression in E. coli” value was “soluble”.
With “MSLTELLNNLEYKKEQLKKLLLRIHEGESVEKLKEEFRTVLSNISPLEIPLIEQELVKEGISARDIAKMCDLHVELFREAVKGTGEVEEKDLPEGHPLKTLYQENKEIMKDAEMLNLYAKTLATTKDERMREEILGVLEEIVSSLRMVGFTHYNREEMLIFPYIERRGLTVIATVLWTKHDEIRAMIKQLAELLRKREEMPWEEFVEKFKAKAGEVAFALSDMVFRENNIFYPTLKALLSEGEWKAIKMQEDEIGYYKVKPPEWDPGEDVKPLHPWEINPELNVEQLLTLPKEVQQALRGQPLEFDKTQLKREEDIDLGTGYLNIEELKAIFEALPVDVTFIDKDDRVRFFSPGERIFTRTPSVLGRPVQLCHPPKSVYVVNKILKAFKEGRKKEATFWLRLREKYVYIKYVPLFNEKGEYIGTLEMTMDIAPYKKIEGEKRLLDWRDEGHHHHHH” the “soluble on expression in E. coli” value was “soluble”.
With “MSLTISDVPTQTLPAEGEIGLIDVGSLQLESGAVIDDVCIAVQRWGKLSPARDNVVVVLHALTGDSHITGPAGPGHPTPGWWDGVAGPGAPIDTTRWCAVATNVLGGCRGSTGPSSLARDGKPWGSRFPLISIRDQVQADVAALAALGITEVAAVVGGSMGGARALEWVVGYPDRVRAGLLLAVGARATADQIGTQTTQIAAIKADPDWQSGDYHETGRAPDAGLRLARRFAHLTYRGEIELDTRFANHNQGNEDPTAGGRYAVQSYLEHQGDKLLSRFDAGSYVILTEALNSHDVGRGRGGVSAALRACPVPVVVGGITSDRLYPLRLQQELADLLPGCAGLRVVESVYGHDGFLVETEAVGELIRQTLGLADREGACREGHHHHHH” the “soluble on expression in E. coli” value was “not soluble”.
With “MSLTKALTFTILHNDMPTYPMKRDWLFWKEVTERTGVTLKPTSVPASDYDKKRSLLIGAGDAPLLIPKTYPGQETAFVSSGAILPVSEYVRLMPNFRAKVEKWGLEGDLDSIRQADGNYYVLPGLHEKVKSGYSLSFRTDVLKKHGLDLPTTWDQVYDVLKALKAAYPDVYPFSDRWGQPTPGGALLNYLGPAFGTKAGWSYANTAWDTKARKYVFTGATDEYRQMLEYLRKLVAEKLMDPESFTQSDDDAVRKLLSGKSFVISANPQELVQNYRYNLGKQVKGATIEMIPVPIGPTGEVIVGSRLENGLMVAGRAAEGDSFVAMMQFVDWLWYSDGGQEFAKYGVEGVTYTSSGAGRYKVADGISYMGSDPSAPKDLQKDYGFTNGEFAYGGSWALVSSSFSPDEKAFQDAMAGRKLLPVDPAHPLKADEQEQATLWDTPLKDHVTQNTLKFALGKRPMSEWDAYLAELKAKNMQRYIDLHNTAYERFKKEHEGHHHHHH” the “soluble on expression in E. coli” value was “not soluble”.
With “MSLTKSVAIIGAGITGLSSAYFLKQQDPNIDVTIFEASNRPGGKIQSYRKDGYMIELGPESYLGRKTIMTELAKDIGLEQDIVTNTTGQSYIFAKNKLYPIPGGSIMGIPTDIKPFVTTKLISPLGKLRAGLDLIKKPIQMQDGDISVGAFFRARLGNEVLENLIEPLMGGIYGTDIDKLSLMSTFPNFKEKEEAFGSLIKGMKDEKNKRLKQRQLYPGAPKGQFKQFKHGLSSFIEALEQDVKNKGVTIRYNTSVDDIITSQKQYKIVYSNQQEDVFDGVLVTTPHQVFLNWFGQDPAFDYFKTMDSTTVATVVLAFDEKDIENTYDGTGFVIARTSDTDITACTWTSKKWPFTTPEGKVLIRAYVGKPGDTVVDDHTDNELVSIVRRDLSQMMTFKGDPEFTIVNRLPKSMPQYHVGHIQQIRQIQAHIKQTYPRLRVTGASFEAVGLPDCITQGKVAAEEVIAELEGHHHHHH” the “soluble on expression in E. coli” value was “soluble”.
For “MSLTLRQAIDLAAALLAEAGVDSARCDAEQLAAHLAGTDRGRLPLFEPPGDEFFGRYRDIVTARARRVPLQHLIGTVSFGPVVLHVGPGVFVPRPETEAILAWATAQSLPARPLIVDACTGSGALAVALAQHRANLGLKARIIGIDDSDCALDYARRNAAGTPVELVRADVTTPRLLPELDGQVDLMVSNPPYIPDAAVLEPEVAQHDPHHALFGGPDGMTVISAVVGLAGRWLRPGGLFAVEHDDTTSSSTVDLVSSTKLFVDVQARKDLAGRPRFVTAMRWGHLPLAGENGAIDPRQRRCRAKREGHHHHHH”, the “soluble on expression in E. coli” value was “soluble”.
With “MSLTLVDIHCHILPGIDDGSKDWETSIKLARDAVKDGITHAVCTPHTLNGKYLNHKDDVIRLTENFQDMLDEAKIPLTVFPGQEVRISGDLPDALDNDDILFLDEEGQYMLLEFPSDDVPTYAKDMIFSIQQRGITPIVVHPERNSRILKEPHILQELIEQGCLVQITASSYVGTFGQKIEEMSRRFIEAGQCACFASDAHDLPKRQYEYSAALKKLSNEFGSGRAQEFEDNARAIVNGDNVQLNWRPLKKKKKFWLFEGHHHHHH” the “soluble on expression in E. coli” value was “not soluble”.
In the case of “MSLTPATETVSPISQWYDMMTRMFPDQRLTFLNYGYLAQDSDFDWINDADLEQKCSVNLIRTLLGDSDLRGKKVLEIGSGRGGNCSYLARYTGAASVTGLDFCPAHIELCNRVHALPGLSFVGGDAMALPFADNEFDVVINIESSHCYPDLNTFGAEVQRVLKQDGRFFYADTMKGDNTSALSEPDSIGVDFFSNVLAQHQAMIEHARFKVEEHRDISDGVIRAFESQDGHLKHLLRSLVEEKKQQREPLPPEVWHAFDTMFHFFDDSGIKAYKNGHLAYKFWRLQKAAEGHHHHHH”, the “soluble on expression in E. coli” value is reported as “not soluble”.
In the case of “MSLTRIKLIATDVDGTFLNQQRTYNHNRFAAQLNRLSSASIRFVVASGNHLGHLKDVFAPTPQVQTFVAENGGLIVDHNRTLAEAQLPLPVVREVVQAILADQTLRPQLLRLSGAHGTYLNRQDRSLDEASQDYFFNNLVRVDDLTQVNDTIYKINGEWPNDSIQTIAAKLNAHFPGLINATASGFGSIDIVAPHMNKAVGLTQLAATWHITPAEIAAFGDNDNDREMLAHVGLGVAMRNGTDSVKEVADLITPHDNNHEGVLDVIDTILADEGHHHHHH”, the “soluble on expression in E. coli” value is reported as “soluble”.
For “MSLTRKEKPAKVGGFFVLSYVLGGRLAPASPVASDSNIRLPGGYINNSQKTTIDAVRAALSAARMGTFDTAAGVQSDDDPAALLLYAWNAEVSGAFLAPLHVCEVVIRNAVSDALEALYGPRWPWSATFERSLPDPKQGYSPRRDLQSARRSAQTTGKVIPELKFVFWQKMFTGRYDTRIWDQNLRRVMPNIDPAKPVAALRNAIYGDLERVRLLRNRIAHHEPMFARALADDYQTILVLVTYRCAVTAAWLDSHQTATAIITAKPEGHHHHHH”, the “soluble on expression in E. coli” value was “not soluble”.
For “MSLTSVVFLNPGNSTETFWVSYSQFMQAAARDLGLDLRILYAERDPQNTLQQARELFQGRDKPDYLMLVNEQYVAPQILRLSQGSGIKLFIVNSPLTLDQRELIGQSRQNYSDWIGSMVGDDEEAGYRMLKELLHKLGPVPAGHGIELLAFSGLKVTPAAQLRERGLRRALAEHPQVHLRQLVYGEWNRERAYRQAQQLLKRYPKTQLVWSANDEMALGAMQAARELGRKPGTDLLFSGVNSSPEALQALIDGKLSVLEAGHFTLGGWALVALHDDALGLDARRLGGPDWQLSLFQEGHHHHHH”, the “soluble on expression in E. coli” value was “not soluble”.
In the case of “MSLTTFIQLHLLTAYPAANLNRDDTGAPKTVVLGGATRLRVSSQSLKRAWRTSALFEQALAGHIGIRSGRIAREAATILIEKGIEEKKAIEWAAKIADYLGKAKNDKKPKDPLTNAETEQLVHISPAEFDAVKALAHQLAEEKRAPKEEDLALLRKDRMAVDIAMFGRMLANKPEFNVEAACQVAHAFGVSETIVEDDFFTAVDDLRQASEDAGAGHLGETGFGSALFYTYICIDKDLLVENLGGDEALANQTLRAFTEAALKVSPTGKQNSFASRAYASWALAEKGTEQPRSLAAAFYEPINGTRQLDVAVQRITTLRENMNTVYEQKTECASFDVMNKQGSMKDVLDFICAEGHHHHHH”, the “soluble on expression in E. coli” value is reported as “soluble”.
For “MSLTTIKNIESFVYRYPLSKPVITSFGVMNNRPMLILKITDNNGMYGWGEVWCNFPLTGAEHRAKLIDNIFKPLLANFDIITPEKTYEYLVSKTKILSIQSGEPGPIAQCIAGIDIAVHDLIGKVENISLWKKFGGNKNIIPCYASGINPTKPEVTVKDAIKKGYSSFKLKIGFGIKKDLGNIKEIKNILPEKSSLMVDANQAWNLNEAIEACRLLEDLNLCWLEEPIPANSEIKEWIHLKDSTKITLAAGENFNSHREFSSFFQNKVFGYLQPDIAKWGGFTECSKLIKNIIQNKITYCPHYLGGGIGLVASAHLLSASNGKGILEVDINDNPLRSDIVGDIFEKNSGFATLSDIPGLGFEPNLKTISKYLVAHEGHHHHHH”, the “soluble on expression in E. coli” value was “soluble”.
In the case of “MSLTTPSKKTLLFDLDGTLVDSFPGIRTSFLHTLHEKNWEIPSEERISQVPGPPMEWTFQDLGMTPEQAQDALQTYLEHYGQVGWDLSEAFPGMRDLLIRLKYEGFRLCTATSKGEFFAEKVLRKFEMFDLFEFMGAATDNGNRRSKSAVIKHVLDSVGLDEPNDILMIGDRSHDIEGSSEFGIDCVAVTWGYGSKTEWDAARYTVSTAEELERIIHDWAEGHHHHHH”, the “soluble on expression in E. coli” value is reported as “soluble”.
For “MSLTTSHFIPFPREMVWDWHTRKGAVARLTPPFIPLNPITQAERLADGTTIFSLPAGLKWVARHDLSGFLNGSRFTDVCLTAPVKALANWRHVHNFVDQDGGTLITDSVSTRLPASTLTGMFAYRQTQLIEDLKFLSRTSTLFDGSPLTVAITGSRGLVGRALTAQLQTGGHEVIQLVRKEPKPGKRFWDPLNPASDLLDGADVLVHLAGEPIFGRFNDSHKEAIRESRVLPTKFLAELVAESTQCTTMISASAVGFYGHDRGDEILTEESESGDDFLAEVCRDWEHATAPASDAGKRVAFIRTGVALSGRGGMLPLLKTLFSTGLGGKFGDGTSWFSWIAIDDLTDIYYRAIVDAQISGPINAVAPNPVSNADMTKILATSMHRPAFIQIPSLGPKILLGSQGAEELALASQRTAPAALENLSHTFRYTDIGAAIAHELGYEQLADFAQQQEIEAERKQERAELKAAKKIAKKAPVLEESPTNLEDPEEVEQSILSSILNFRRKRNDLEHHHHHH”, the “soluble on expression in E. coli” value was “soluble”.
